Target: T1, NgR1 (Mus musculus, UniProt Q99PI8)
T1 chain: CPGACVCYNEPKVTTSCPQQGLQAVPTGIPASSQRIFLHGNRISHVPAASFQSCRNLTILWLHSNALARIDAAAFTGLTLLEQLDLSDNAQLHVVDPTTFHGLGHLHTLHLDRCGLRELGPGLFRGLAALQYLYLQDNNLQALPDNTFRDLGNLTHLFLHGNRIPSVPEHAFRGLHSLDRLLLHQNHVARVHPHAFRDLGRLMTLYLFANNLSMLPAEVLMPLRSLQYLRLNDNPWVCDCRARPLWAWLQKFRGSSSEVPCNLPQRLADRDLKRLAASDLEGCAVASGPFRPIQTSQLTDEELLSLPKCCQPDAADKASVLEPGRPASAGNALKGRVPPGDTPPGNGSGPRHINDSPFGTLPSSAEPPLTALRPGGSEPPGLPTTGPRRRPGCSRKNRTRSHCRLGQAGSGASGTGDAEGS
Test: AP-fusion cell-surface saturation binding

B1: LOTUS (Crtac1B) 29-602 (antibody)
chain: SQRAEPMFTAVTNSVLPPDYDSNPTQLNYGVAVTDVDHDGDFEIVVAGYTGPNLVLKYNRAQNRLVNIAVDERSSPYYALRDRQGNAIGVTACDIDGDGREEIYFLNTNNAFSGVATYTDKLFKFRNNRWEDILSDDVNVARGVASLFAGRSVACVDRTGSGRYSIYIANYAYGDVGPDALIEMDPEASDLSRGILALRDVAAEAGVSKYTAGRGVSVGPILSSSASDIFCDNENGPNFLFHNQGNGTFVDTAASAGVDDPHQHGRGVALADFNRDGKVDIVYGNWNGPHRLYLQMSAHGKVRFRDIASPKFSTPSPVRTVIAADFDNDQELEVFFNNIAYRSSSANRLFRVIRREHGDPLIEELNPGDALEPEGRGTGGVVTDFDGDGMLDLILSHGESMAQPLSVFRGNQGFSNNWLRVVPRTRFGAFARGAKVVLYTKKSGAHLRIIDGGSGYLCEMEPVAHFGLGRDEASSVEVTWPDGKMVSRSVASEEMNSVLEILYPQDEDKLQNTAPLECGQGFSQQDNGHCMDTNECIQFPFVCPRDKPVCVNTYGSYRCRTNKRCNRGYEPNED
modifications: alkaline phosphatase fusion of LOTUS
Kd: ~6.8 nM
